The numbers were not newly measured in paper PMC12687463, which cites them from elsewhere.

Where two headings read alike, the source gives them in different places.

Series [1] concerns the target glucokinase regulatory protein (GKRP) (Homo sapiens) (UniProt Q14397).
Series [2] has the same target. This is another data set of the same source.
For series [3] the target is unchanged. This is another data set of the same source.

Sequence of UniProt Q14397 (Q14397 whole entry): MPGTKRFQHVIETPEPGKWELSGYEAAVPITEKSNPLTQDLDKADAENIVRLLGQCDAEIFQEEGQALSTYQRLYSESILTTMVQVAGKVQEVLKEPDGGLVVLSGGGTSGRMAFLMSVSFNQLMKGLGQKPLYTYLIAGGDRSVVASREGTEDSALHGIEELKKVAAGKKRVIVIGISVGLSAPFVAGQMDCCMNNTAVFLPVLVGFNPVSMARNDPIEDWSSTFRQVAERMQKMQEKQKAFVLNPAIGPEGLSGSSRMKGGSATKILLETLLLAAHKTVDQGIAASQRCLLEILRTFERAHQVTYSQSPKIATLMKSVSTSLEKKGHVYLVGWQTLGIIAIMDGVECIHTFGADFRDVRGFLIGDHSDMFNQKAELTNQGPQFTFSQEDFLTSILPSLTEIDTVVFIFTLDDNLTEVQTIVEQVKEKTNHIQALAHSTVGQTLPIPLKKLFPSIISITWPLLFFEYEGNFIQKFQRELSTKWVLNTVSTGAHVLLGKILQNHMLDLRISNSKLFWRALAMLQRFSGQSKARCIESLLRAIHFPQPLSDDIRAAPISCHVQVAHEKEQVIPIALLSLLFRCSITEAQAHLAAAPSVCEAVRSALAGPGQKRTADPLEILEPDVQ
Sequence of glucokinase (P35557 whole entry): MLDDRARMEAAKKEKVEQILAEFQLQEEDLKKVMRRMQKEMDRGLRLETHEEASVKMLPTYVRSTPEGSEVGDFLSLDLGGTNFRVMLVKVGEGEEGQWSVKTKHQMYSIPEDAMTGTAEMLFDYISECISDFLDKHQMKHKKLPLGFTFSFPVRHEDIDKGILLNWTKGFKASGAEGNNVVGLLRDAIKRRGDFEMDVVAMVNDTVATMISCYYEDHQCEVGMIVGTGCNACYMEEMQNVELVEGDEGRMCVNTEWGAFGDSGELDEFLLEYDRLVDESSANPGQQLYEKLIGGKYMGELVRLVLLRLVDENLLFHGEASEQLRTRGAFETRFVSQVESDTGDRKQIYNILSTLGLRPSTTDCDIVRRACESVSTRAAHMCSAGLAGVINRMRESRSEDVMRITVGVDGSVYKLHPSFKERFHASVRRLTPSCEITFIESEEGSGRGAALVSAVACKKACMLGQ

As for glucokinase (from UniProt P35557), the Ki (in general, the dissociation constant of the complex between target and ligand, obtained from inhibition or displacement) was 45 nM in series [1], 7000 nM in series [2] and 984 nM in series [3].
